According to paper PMC2787699:

Substrate: O=C(O)[C@@H](O)[C@H](O)[C@H](O)[C@@H](O)C(=O)O
Test: purified protein
Type: biochemical, Oceanobacillus iheyensis
Conditions: 50 mM Hepes pH 8.0, 5 mM MgCl2

Row | Protein | Km [µM] | kcat [s⁻¹] | kcat/Km [M⁻¹ s⁻¹]
1 | Ob2843; galactarate dehydratase GalrD-II (Oceanobacillus iheyensis HTE831) (protein) MKITDLELHAVGIPRHTGFVNKHVIVKIHTDEGLTGIGEMSDFSHLPLYSVDLHDLKQGLLSILLGQNPFDLMKINKELTDNFPETMYYYEKGSFIRNGIDNALHDLCAKYLDISVSDFLGGRVKEKIKVCYPIFRHRFSEEVESNLDVVRQKLEQGFDVFRLYVGKNLDADEEFLSRVKEEFGSRVRIKSYDFSHLLNWKDAHRAIKRLTKYDLGLEMIESPAPRNDFDGLYQLRLKTDYPISEHVWSFKQQQEMIKKDAIDIFNISPVFIGGLTSAKKAAYAAEVASKDVVLGTTQELSVGTAAMAHLGCSLTNINHTSDPTGPELYVGDVVKNRVTYKDGYLYAPDRSVKGLGIELDESLLAKYQVPDLSWDNVTVHQLQDRTADTKS | 620 ± 380 | 6.8 ± 1.2 | 11000
2 | Ob2843; galactarate dehydratase GalrD-II (Oceanobacillus iheyensis HTE831; Y90F) (protein) MKITDLELHAVGIPRHTGFVNKHVIVKIHTDEGLTGIGEMSDFSHLPLYSVDLHDLKQGLLSILLGQNPFDLMKINKELTDNFPETMYYFEKGSFIRNGIDNALHDLCAKYLDISVSDFLGGRVKEKIKVCYPIFRHRFSEEVESNLDVVRQKLEQGFDVFRLYVGKNLDADEEFLSRVKEEFGSRVRIKSYDFSHLLNWKDAHRAIKRLTKYDLGLEMIESPAPRNDFDGLYQLRLKTDYPISEHVWSFKQQQEMIKKDAIDIFNISPVFIGGLTSAKKAAYAAEVASKDVVLGTTQELSVGTAAMAHLGCSLTNINHTSDPTGPELYVGDVVKNRVTYKDGYLYAPDRSVKGLGIELDESLLAKYQVPDLSWDNVTVHQLQDRTADTKS | 2000 ± 480 | 0.0061 ± 0.006 | 3.1
